Test results as given in patent publication US20250361299A1 (published 2025).
Each block holds one binder with its values, some of them ahead of it.

Experiments:
Human CD3 protein [1] = target: T1, Human CD3 protein (human, UniProt P07766 23-126); assay: ELISA; with uPA
T1 chain: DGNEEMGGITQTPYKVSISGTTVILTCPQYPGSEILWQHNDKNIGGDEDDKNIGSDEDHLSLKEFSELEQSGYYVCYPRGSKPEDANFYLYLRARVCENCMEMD

Recombinant human EGFR [2] = target: T2, Recombinant human EGFR (human, UniProt P00533 25-645); assay: ELISA; with uPA
Human CD3 protein [3] = target: T1, Human CD3 protein; assay: ELISA; without uPA
Recombinant human EGFR [4] = target: T2, Recombinant human EGFR; assay: ELISA; without uPA

- EC50 (Human CD3 protein [1]): 0.67 µg/mL
- EC50 (Recombinant human EGFR [2]): 0.0186 µg/mL
B1: 1.6.1M-Pa proBiTE after uPA digestion (bispecific antibody)
heavy: SDNHGGGGSEVQLVESGGGLVQPGGSLRLSCAASGFTFNTYAMNWVRQAPGKGLEWVARIRSKYNNYATYYADSVKGRFTISRDDSKNTLYLQMNSLRAEDTAVYYCARHGNFGSSYVSYFAYWGQGTTVTVSSASTKGPSVFPLAPSSKSTSGGTAALGCLVKDYFPEPVTVSWNSGALTSGVHTFPAVLQSSGLYSLSSVVTVPSSSLGTQTYICNVNHKPSNTKVDKKVEPKSCPPCPAPEAAGAPSVFLFPPKPKDTLMISRTPEVTCVVVDVSHEDPEVKFNWYVDGVEVHNAKTKPREEQYNSTYRVVSVLTVLHQDWLNGKEYKCKVSNKALPAPIEKTISKAKGQPREPQVYTLPPSRDELTKNQVSLLCLVKGFYPSDIAVEWESNGQPENNYKTTPPVLDSDGSFFLHSKLTVDKSRWQQGNVFSCSVMHEALHNHYTQKSLSLSPGK
light: QVQLQESGPGLVKPSETLSLTCTVSGGSVSSGDYYWTWIRQSPGKGLEWIGHIYYSGNTNYNPSLKSRLTISIDTSKTQFSLKLSSVTAADTAIYYCVRDRVTGAFDIWGQGTMVTVSSGGGGSGGGGSGGGGSGGGGSDIQMTQSPSSLSASVGDRVTITCQASQDISNYLNWYQQKPGKAPKLLIYDASNLETGVPSRFSGSGSGTDFTFTISSLQPEDIATYFCQHFDHLPLAFGGGTKVEIKGGGGSGGGGSGGGGSGGGGSEIVVTQSPATLSVSPGERATLSCRSSTGAVTTSNYANWVQQKPGQAPRGLIGGANKRAPGVPARFSGSLSGDEATLTISSLQSEDFAVYYCALWYSNLWVFGQGTKLEIKRTVAAPSVFIFPPSDEQLKSGTASVVCLLNNFYPREAKVQWKVDNALQSGNSQESVTEQDSKDSTYSLSSTLTLSKADYEKHKVYACEVTHQGLSSPVTKSFNRGECPPCPAPEAAGAPSVFLFPPKPKDTLMISRTPEVTCVVVDVSHEDPEVKFNWYVDGVEVHNAKTKPREEQYNSTYRVVSVLTVLHQDWLNGKEYKCKVSNKALPAPIEKTISKAKGQPREPQVYTLPPSRDELTKNQVSLLCLVKGFYPSDIAVEWESNGQPENNYKTTPPVLDSDGSFFLHSKLTVDKSRWQQGNVFSCSVMHEALHNHYTQKSLSLSPGK

- EC50 (Human CD3 protein [3]): 6.57 µg/mL
- EC50 (Recombinant human EGFR [4]): 0.244 µg/mL
B2: 1.4.3M-Pa proBiTE (bispecific antibody)
heavy: QDGNEEMGGIGGGSQDGNEEMGGGGGSGGGSGLSGRSDNHGGSEVQLVESGGGLVQPGGSLRLSCAASGFTFNTYAMNWVRQAPGKGLEWVARIRSKYNNYATYYADSVKGRFTISRDDSKNTLYLQMNSLRAEDTAVYYCARHGNFGSSYVSYFAYWGQGTTVTVSSGGGSSGGGGSGGGGSQVQLQESGPGLVKPSETLSLTCTVSGGSVSSGDYYWTWIRQSPGKGLEWIGHIYYSGNTNYNPSLKSRLTISIDTSKTQFSLKLSSVTAADTAIYYCVRDRVTGAFDIWGQGTMVTVSSASTKGPSVFPLAPSSKSTSGGTAALGCLVKDYFPEPVTVSWNSGALTSGVHTFPAVLQSSGLYSLSSVVTVPSSSLGTQTYICNVNHKPSNTKVDKKVEPKSCPPCPAPEAAGGPSVFLFPPKPKDTLMISRTPEVTCVVVDVSHEDPEVKFNWYVDGVEVHNAKTKPREEQYNSTYRVVSVLTVLHQDWLNGKEYKCKVSNKALPAPIEKTISKAKGQPREPQVYTLPPSRDELTKNQVSLLCLVKGFYPSDIAVEWESNGQPENNYKTTPPVLDSDGSFFLHSKLTVDKSRWQQGNVFSCSVMHEALHNHYTQKSLSLSPGK
light: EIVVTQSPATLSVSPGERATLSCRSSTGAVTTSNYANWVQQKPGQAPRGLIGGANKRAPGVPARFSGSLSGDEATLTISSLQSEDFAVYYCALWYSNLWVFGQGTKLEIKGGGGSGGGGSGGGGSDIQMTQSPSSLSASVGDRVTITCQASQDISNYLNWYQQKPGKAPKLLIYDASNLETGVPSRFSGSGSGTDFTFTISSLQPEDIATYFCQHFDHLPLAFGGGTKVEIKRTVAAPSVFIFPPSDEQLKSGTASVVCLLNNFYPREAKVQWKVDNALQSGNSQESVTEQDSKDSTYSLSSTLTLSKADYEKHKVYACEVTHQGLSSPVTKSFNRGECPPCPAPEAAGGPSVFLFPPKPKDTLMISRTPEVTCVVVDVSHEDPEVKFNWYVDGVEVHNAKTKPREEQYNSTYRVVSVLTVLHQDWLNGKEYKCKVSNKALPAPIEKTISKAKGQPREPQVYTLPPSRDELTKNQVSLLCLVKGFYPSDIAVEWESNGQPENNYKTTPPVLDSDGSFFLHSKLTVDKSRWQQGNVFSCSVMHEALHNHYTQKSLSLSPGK
